According to US20250277030A1 (Zymeworks, published 2025):

T1: human sodium-dependent phosphate transporter 2B (NaPi2b) (human, UniProt O95436 1-690)
T1 sequence: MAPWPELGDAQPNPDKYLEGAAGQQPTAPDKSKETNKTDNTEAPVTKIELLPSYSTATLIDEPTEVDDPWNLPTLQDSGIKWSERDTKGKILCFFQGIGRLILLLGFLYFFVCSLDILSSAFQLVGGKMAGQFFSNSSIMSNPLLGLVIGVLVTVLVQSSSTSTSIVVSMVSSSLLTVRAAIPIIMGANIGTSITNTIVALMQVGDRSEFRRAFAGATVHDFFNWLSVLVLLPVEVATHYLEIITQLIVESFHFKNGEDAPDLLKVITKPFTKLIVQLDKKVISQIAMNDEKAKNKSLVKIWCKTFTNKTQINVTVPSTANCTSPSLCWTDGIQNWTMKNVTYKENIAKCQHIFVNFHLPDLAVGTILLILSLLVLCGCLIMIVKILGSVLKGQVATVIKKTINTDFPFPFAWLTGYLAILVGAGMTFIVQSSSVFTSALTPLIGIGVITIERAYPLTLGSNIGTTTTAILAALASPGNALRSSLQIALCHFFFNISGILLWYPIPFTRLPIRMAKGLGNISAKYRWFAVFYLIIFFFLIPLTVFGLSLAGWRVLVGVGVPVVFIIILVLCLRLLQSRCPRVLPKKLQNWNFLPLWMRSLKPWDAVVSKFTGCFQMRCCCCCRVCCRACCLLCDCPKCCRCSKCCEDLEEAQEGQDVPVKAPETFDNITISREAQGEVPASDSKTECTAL


How the values were obtained:
[1] = target: T1, human sodium-dependent phosphate …; test: cell-based or functional assay
[2] = target: T1, human sodium-dependent phosphate …; test: flow cytometry, IGROV-1 cells (endogenous NaPi2b), 24 h at 4 °C
Description: (§1) IGROV-1 cells express endogenous NaPi2b at a high level.
(§2) Briefly, cells were seeded at 50,000 cells/well in conical-bottom 96-well plates and treated with test antibody for 24 hours at 4° C. to prevent internalization. […] Following incubation, cells were washed and stained with anti-Human IgG Fc AF647 conjugate (Jackson Immuno Research Labs, West Grove, PA; Cat. No. 109-605-098) at 4° C. for 30 min. Following incubation and washing, fluorescence was detected by flow cytometry on a BD LSRFortessa™ Cell Analyzer (BD Biosciences, Franklin Lake, NJ) with 1,000 minimum events collected per well. The AF647/APC-A GeoMean (fluorescence signal geometric mean, proportional to anti-Human AF647 binding) was calculated for the live cell population using FlowJo™ Version 10.8.1 (BD Biosciences, Franklin Lake, NJ) and plotted for each test antibody using GraphPad Prism Version 9 (GraphPad Software, San Diego, CA).

[3] = target: T1, human sodium-dependent phosphate …; test: flow cytometry, IGROV-1 cells (endogenous NaPi2b), 24 h at 4 °C; apparent Kd
Description: as §1, §2

Binder | In vitro cytotoxicity EC50 (nM), HCC-78 [1] | In vitro cytotoxicity EC50 (nM), IGROV-1 [1] | In vitro cytotoxicity EC50 (nM), OVCAR-3 [1] | Bmax (MFI) [2] | Kd [3]
v18993-DL1, lifastuzumab conjugated to MC-GGFG-AM-DXd1 (DAR 8) (antibody, human IgG1, kappa, MC-GGFG-AM-DXd1 (DL1) on cysteines freed by reduction; positions not given; MC-GGFG-AM-DXd1 (DL1) on cysteines freed by reduction; positions not given; DAR 8 for the whole antibody) heavy 1: GEVQLVESGGGLVQPGGSLRLSCAASGFSFSDFAMSWVRQAPGKGLEWVATIGRVAFHTYYPDSMKGRFTISRDNSKNTLYLQMNSLRAEDTAVYYCARHRGFDVGHFDFWGQGTLVTVSSASTKGPSVFPLAPSSKSTSGGTAALGCLVKDYFPEPVTVSWNSGALTSGVHTFPAVLQSSGLYSLSSVVTVPSSSLGTQTYICNVNHKPSNTKVDKKVEPKSCDKTHTCPPCPAPELLGGPSVFLFPPKPKDTLMISRTPEVTCVVVDVSHEDPEVKFNWYVDGVEVHNAKTKPREEQYNSTYRVVSVLTVLHQDWLNGKEYKCKVSNKALPAPIEKTISKAKGQPREPQVYVYPPSRDELTKNQVSLTCLVKGFYPSDIAVEWESNGQPENNYKTTPPVLDSDGSFALVSKLTVDKSRWQQGNVFSCSVMHEALHNHYTQKSLSLSPG heavy 2: not shown light: GDIQMTQSPSSLSASVGDRVTITCRSSETLVHSSGNTYLEWYQQKPGKAPKLLIYRVSNRFSGVPSRFSGSGSGTDFTLTISSLQPEDFATYYCFQGSFNPLTFGQGTKVEIKRTVAAPSVFIFPPSDEQLKSGTASVVCLLNNFYPREAKVQWKVDNALQSGNSQESVTEQDSKDSTYSLSSTLTLSKADYEKHKVYACEVTHQGLSSPVTKSFNRGEC | 5.45 nM | 3.45 nM | – | – | –
v23855-DL3, v23855 conjugated to MC-VC-PABC-MMAE (DAR 4) (antibody, human IgG1, kappa, V domains shown, MC-VC-PABC-MMAE (DL3) on cysteines freed by reduction; positions not given; MC-VC-PABC-MMAE (DL3) on cysteines freed by reduction; positions not given; DAR 4 for the whole antibody) VH: QAYLQQSGAELVRPGASVKMSCKASGFTFTSYNVHWVKQTPRQGLEWIAAISPGNGDLSYNQRFKDKATLTVDRSSSTAYMQLSGLTSEDSAVYFCARGRTGMGAVDYWGQGTSVTVSS VL: DVQMTQTASSLSASLGDRVTISCRASQDVYSYLNWYQQKPHGTVKLLIYYTSRLQSGVPSRFTGSGSGTDYSLTISNLEPEDIATYYCQQYNIFPWTFGGGTKLEIKR | 0.2 nM | 0.18 nM | 0.05 nM | – | –
v18992-DL1, MX35 conjugated to MC-GGFG-AM-DXd1 (DAR 8) (antibody, human IgG1, kappa, MC-GGFG-AM-DXd1 (DL1) on cysteines freed by reduction; positions not given; MC-GGFG-AM-DXd1 (DL1) on cysteines freed by reduction; positions not given; DAR 8 for the whole antibody) heavy 1: GQVQLVQSGAEVVKPGASVKMSCKASGYTFTGYNIHWVKQAPGQGLEWIGAIYPGNGDTSYKQKFRGRATLTADTSTSTVYMELSSLRSEDSAVYYCARGETARATFAYWGQGTLVTVSSASTKGPSVFPLAPSSKSTSGGTAALGCLVKDYFPEPVTVSWNSGALTSGVHTFPAVLQSSGLYSLSSVVTVPSSSLGTQTYICNVNHKPSNTKVDKKVEPKSCDKTHTCPPCPAPELLGGPSVFLFPPKPKDTLMISRTPEVTCVVVDVSHEDPEVKFNWYVDGVEVHNAKTKPREEQYNSTYRVVSVLTVLHQDWLNGKEYKCKVSNKALPAPIEKTISKAKGQPREPQVYVYPPSRDELTKNQVSLTCLVKGFYPSDIAVEWESNGQPENNYKTTPPVLDSDGSFALVSKLTVDKSRWQQGNVFSCSVMHEALHNHYTQKSLSLSPG heavy 2: not shown light: GDIQMTQSPSSLSASVGDRVTITCSASQDIGNFLNWYQQKPGKTVKVLIYYTSSLYSGVPSRFSGSGSGTDYTLTISSLQPEDFATYYCQQYSKLPLTFGQGTKLELKRTVAAPSVFIFPPSDEQLKSGTASVVCLLNNFYPREAKVQWKVDNALQSGNSQESVTEQDSKDSTYSLSSTLTLSKADYEKHKVYACEVTHQGLSSPVTKSFNRGEC | 0.68 nM | 1.04 nM | – | – | –
v29455 humanized anti-NaPi2b antibody (H2L2) (antibody, human IgG1, kappa, V domains shown) VH: QVQLVQSGAEVKKPGASVKVSCKASGFTFTSYNVHWVRQAPGQGLEWIAAISPGNGDLSYAQKFQGRVTMTVDTSTSTVYMELSSLRSEDTAVYYCARGRTGMGAVDYWGQGTLVTVSS VL: DVQMTQSPSSLSASVGDRVTITCRASQDVYSYLNWYQQKPGKAVKLLIYYTSRLQSGVPSRFSGSGSGTDYTLTISSLQPEDFATYYCQQYNIFPWTFGQGTKLEIKR | – | – | – | 41900 MFI | 1.18 nM
v29457 humanized anti-NaPi2b antibody (H4L1) (antibody, human IgG1, kappa, V domains shown) VH: QVQLVQSGAEVKKPGASVKMSCKASGFTFTSYNVHWVRQAPGQGLEWIAAISPGNGDLSYAQKFQGRATLTVDRSTSTAYMELSSLRSEDTAVYYCARGRTGMGAVDYWGQGTLVTVSS VL: DIQMTQSPSSLSASVGDRVTITCRASQDVYSYLNWYQQKPGKAPKLLIYYTSRLQSGVPSRFSGSGSGTDFTLTISSLQPEDFATYYCQQYNIFPWTFGQGTKLEIKR | – | – | – | 44500 MFI | 1.73 nM
v29459 humanized anti-NaPi2b antibody (H2L1) (antibody, human IgG1, kappa, V domains shown) VH: QVQLVQSGAEVKKPGASVKVSCKASGFTFTSYNVHWVRQAPGQGLEWIAAISPGNGDLSYAQKFQGRVTMTVDTSTSTVYMELSSLRSEDTAVYYCARGRTGMGAVDYWGQGTLVTVSS VL: DIQMTQSPSSLSASVGDRVTITCRASQDVYSYLNWYQQKPGKAPKLLIYYTSRLQSGVPSRFSGSGSGTDFTLTISSLQPEDFATYYCQQYNIFPWTFGQGTKLEIKR | – | – | – | 40900 MFI | 1.61 nM
v29454 humanized anti-NaPi2b antibody (H3L2) (antibody, human IgG1, kappa, V domains shown) VH: QVQLVQSGAEVKKPGASVKMSCKASGFTFTSYNVHWVRQAPGQGLEWIAAISPGNGDLSYAQKFQGRATLTVDTSTSTAYMELSSLRSEDTAVYYCARGRTGMGAVDYWGQGTLVTVSS VL: DVQMTQSPSSLSASVGDRVTITCRASQDVYSYLNWYQQKPGKAVKLLIYYTSRLQSGVPSRFSGSGSGTDYTLTISSLQPEDFATYYCQQYNIFPWTFGQGTKLEIKR | – | – | – | 42300 MFI | 0.92 nM
v29451 humanized anti-NaPi2b antibody (H2L3) (antibody, human IgG1, kappa, V domains shown) VH: QVQLVQSGAEVKKPGASVKVSCKASGFTFTSYNVHWVRQAPGQGLEWIAAISPGNGDLSYAQKFQGRVTMTVDTSTSTVYMELSSLRSEDTAVYYCARGRTGMGAVDYWGQGTLVTVSS VL: DVQMTQSPSSLSASVGDRVTITCRASQDVYSYLNWYQQKPGKAVKLLIYYTSRLQSGVPSRFSGSGSGTDYTLTISSLQPEDIATYYCQQYNIFPWTFGQGTKLEIKR | – | – | – | 46200 MFI | 1.49 nM
v29458 humanized anti-NaPi2b antibody (H3L1) (antibody, human IgG1, kappa, V domains shown) VH: QVQLVQSGAEVKKPGASVKMSCKASGFTFTSYNVHWVRQAPGQGLEWIAAISPGNGDLSYAQKFQGRATLTVDTSTSTAYMELSSLRSEDTAVYYCARGRTGMGAVDYWGQGTLVTVSS VL: DIQMTQSPSSLSASVGDRVTITCRASQDVYSYLNWYQQKPGKAPKLLIYYTSRLQSGVPSRFSGSGSGTDFTLTISSLQPEDFATYYCQQYNIFPWTFGQGTKLEIKR | – | – | – | 40800 MFI | 1.39 nM
v29450 humanized anti-NaPi2b antibody (H3L3) (antibody, human IgG1, kappa, V domains shown) VH: QVQLVQSGAEVKKPGASVKMSCKASGFTFTSYNVHWVRQAPGQGLEWIAAISPGNGDLSYAQKFQGRATLTVDTSTSTAYMELSSLRSEDTAVYYCARGRTGMGAVDYWGQGTLVTVSS VL: DVQMTQSPSSLSASVGDRVTITCRASQDVYSYLNWYQQKPGKAVKLLIYYTSRLQSGVPSRFSGSGSGTDYTLTISSLQPEDIATYYCQQYNIFPWTFGQGTKLEIKR | – | – | – | 43800 MFI | 0.96 nM
v29460 humanized anti-NaPi2b antibody (H1L1) (antibody, human IgG1, kappa, V domains shown) VH: QVQLVQSGAEVKKPGASVKVSCKASGFTFTSYNVHWVRQAPGQGLEWMGAISPGNGDLSYAQKFQGRVTMTRDTSTSTVYMELSSLRSEDTAVYYCARGRTGMGAVDYWGQGTLVTVSS VL: DIQMTQSPSSLSASVGDRVTITCRASQDVYSYLNWYQQKPGKAPKLLIYYTSRLQSGVPSRFSGSGSGTDFTLTISSLQPEDFATYYCQQYNIFPWTFGQGTKLEIKR | – | – | – | 40100 MFI | 1.67 nM
v29449 humanized anti-NaPi2b antibody (H4L3) (antibody, human IgG1, kappa, V domains shown, Full-size IgG1/kappa) VH: QVQLVQSGAEVKKPGASVKMSCKASGFTFTSYNVHWVRQAPGQGLEWIAAISPGNGDLSYAQKFQGRATLTVDRSTSTAYMELSSLRSEDTAVYYCARGRTGMGAVDYWGQGTLVTVSS VL: DVQMTQSPSSLSASVGDRVTITCRASQDVYSYLNWYQQKPGKAVKLLIYYTSRLQSGVPSRFSGSGSGTDYTLTISSLQPEDIATYYCQQYNIFPWTFGQGTKLEIKR | – | – | – | 44500 MFI | 0.79 nM
v29453 humanized anti-NaPi2b antibody (H4L2) (antibody, human IgG1, kappa, V domains shown) VH: QVQLVQSGAEVKKPGASVKMSCKASGFTFTSYNVHWVRQAPGQGLEWIAAISPGNGDLSYAQKFQGRATLTVDRSTSTAYMELSSLRSEDTAVYYCARGRTGMGAVDYWGQGTLVTVSS VL: DVQMTQSPSSLSASVGDRVTITCRASQDVYSYLNWYQQKPGKAVKLLIYYTSRLQSGVPSRFSGSGSGTDYTLTISSLQPEDFATYYCQQYNIFPWTFGQGTKLEIKR | – | – | – | 44500 MFI | 0.82 nM
